{
  "source": "patent EP4342487A2",
  "about": "“PHARMACEUTICAL COMPOSITION COMPRISING GIP DERIVATIVE OR LONG-ACTING CONJUGATE THEREOF FOR PREVENTING OR TREATING PULMONARY DISEASE” (Hanmi Pharm. Co., Ltd., priority 2021, dated 2022)",
  "note": "Where no end group is shown, it is not given here. [ ]: non-standard residue; d: D form. Aib = CC(C)(N)C(=O)O",
  "data": [
    {"biological_target": "T1, human GIP receptor (human, UniProt P48546 22-466)", "T1 sequence (looked up)": "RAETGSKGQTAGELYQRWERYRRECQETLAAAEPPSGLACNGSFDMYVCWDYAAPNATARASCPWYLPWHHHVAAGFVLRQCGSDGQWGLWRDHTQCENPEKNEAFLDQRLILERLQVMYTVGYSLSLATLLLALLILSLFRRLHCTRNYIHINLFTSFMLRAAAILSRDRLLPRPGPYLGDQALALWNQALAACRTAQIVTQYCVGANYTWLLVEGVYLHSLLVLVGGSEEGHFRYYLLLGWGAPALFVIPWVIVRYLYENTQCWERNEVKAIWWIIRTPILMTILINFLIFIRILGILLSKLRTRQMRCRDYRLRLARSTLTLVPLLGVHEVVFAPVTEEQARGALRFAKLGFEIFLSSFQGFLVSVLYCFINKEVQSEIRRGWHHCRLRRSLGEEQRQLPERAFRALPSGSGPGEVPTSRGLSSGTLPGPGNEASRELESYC", "assay": "cell-based or functional assay", "units": {"In vitro activity (%) of GIP derivatives compared to human native GIP in human GIP receptors (EC50 from accumulated cAMP, CHO cells expressing the human GIP receptor)": "%"}, "values": [
      {"binder": "Y[Aib]EGTFISDYSIAMDAIAQQDFVNWLLAQKPSSGAPPPSC (not fully specified)", "note": "[GIP derivative of SEQ ID NO: 1]", "In vitro activity (%) of GIP derivatives compared to human native GIP in human GIP receptors (EC50 from accumulated cAMP, CHO cells expressing the human GIP receptor)": 49.3},
      {"binder": "Y[Aib]EGTFISDYSIYLDAQAAKEFIAWLLAGGPSSGAPPPSC (not fully specified)", "note": "[GIP derivative of SEQ ID NO: 10]", "In vitro activity (%) of GIP derivatives compared to human native GIP in human GIP receptors (EC50 from accumulated cAMP, CHO cells expressing the human GIP receptor)": 13.9},
      {"binder": "Y[Aib]EGTFISDYSIAMDAIAQQDFVNWLLAQKGKKNDWKHNITQC (not fully specified; printed as YAibEGT FISDYSIAMDAIAQQDFVNWLLAQKGKKNDWKHNITQC)", "note": "[GIP derivative of SEQ ID NO: 11]", "In vitro activity (%) of GIP derivatives compared to human native GIP in human GIP receptors (EC50 from accumulated cAMP, CHO cells expressing the human GIP receptor)": 122},
      {"binder": "Y[Aib]EGTFISDYSIYLDKQAA[Aib]EFVNWLLAQKC (not fully specified)", "note": "[GIP derivative of SEQ ID NO: 13]", "In vitro activity (%) of GIP derivatives compared to human native GIP in human GIP receptors (EC50 from accumulated cAMP, CHO cells expressing the human GIP receptor)": 31.1},
      {"binder": "Y[Aib]EGTFISDYSIYLDAQAA[Aib]EFVNWLLAQKC (not fully specified)", "note": "[GIP derivative of SEQ ID NO: 14]", "In vitro activity (%) of GIP derivatives compared to human native GIP in human GIP receptors (EC50 from accumulated cAMP, CHO cells expressing the human GIP receptor)": 17.4},
      {"binder": "Y[Aib]EGTFISDYSIAMDKIAQQDFVNWLLAQKPSSGAPPPSC (not fully specified)", "note": "[GIP derivative of SEQ ID NO: 15]", "In vitro activity (%) of GIP derivatives compared to human native GIP in human GIP receptors (EC50 from accumulated cAMP, CHO cells expressing the human GIP receptor)": 31.1},
      {"binder": "Y[Aib]EGTFISDYSIAMDGIAQQDFVNWLLAQKPSSGAPPPSC (not fully specified)", "note": "[GIP derivative of SEQ ID NO: 16]", "In vitro activity (%) of GIP derivatives compared to human native GIP in human GIP receptors (EC50 from accumulated cAMP, CHO cells expressing the human GIP receptor)": 11.3},
      {"binder": "Y[Aib]EGTFISDYSIALEKQAQQDFVNWLLAGGPSSGAPPPSC (not fully specified)", "note": "[GIP derivative of SEQ ID NO: 17]", "In vitro activity (%) of GIP derivatives compared to human native GIP in human GIP receptors (EC50 from accumulated cAMP, CHO cells expressing the human GIP receptor)": 111},
      {"binder": "Y[Aib]EGTFISDYSIYLDKQAAQEFVNWLLAQKPSSGAPPPSC (not fully specified)", "note": "[GIP derivative of SEQ ID NO: 18]", "In vitro activity (%) of GIP derivatives compared to human native GIP in human GIP receptors (EC50 from accumulated cAMP, CHO cells expressing the human GIP receptor)": 13.6},
      {"binder": "Y[Aib]EGTFISDYSIYLDKQAA[Aib]EFVNWLL[Aib]GHPSSGAPPPSC (not fully specified)", "note": "[GIP derivative of SEQ ID NO: 19]", "In vitro activity (%) of GIP derivatives compared to human native GIP in human GIP receptors (EC50 from accumulated cAMP, CHO cells expressing the human GIP receptor)": 66.7},
      {"binder": "Y[Aib]EGTFISDYSIAMDAIAQQDFVNWLLAGGPSSGAPPPSC (not fully specified)", "note": "[GIP derivative of SEQ ID NO: 2]", "In vitro activity (%) of GIP derivatives compared to human native GIP in human GIP receptors (EC50 from accumulated cAMP, CHO cells expressing the human GIP receptor)": 13.9},
      {"binder": "Y[Aib]EGTFISDYSIYLDKQAA[Aib]EFVNWLL[Aib]GGPSSGAPPPSC (not fully specified)", "note": "[GIP derivative of SEQ ID NO: 20]", "In vitro activity (%) of GIP derivatives compared to human native GIP in human GIP receptors (EC50 from accumulated cAMP, CHO cells expressing the human GIP receptor)": 75.3},
      {"binder": "Y[Aib]EGTFISDYSI[Aib]LDKQAA[Aib]EFVNWLL[Aib]GGPSSGAPPPSC (not fully specified)", "note": "[GIP derivative of SEQ ID NO: 21]", "In vitro activity (%) of GIP derivatives compared to human native GIP in human GIP receptors (EC50 from accumulated cAMP, CHO cells expressing the human GIP receptor)": 123},
      {"binder": "Y[Aib]EGTFISDYSIYLDKQAA[Aib]EFVNWLLAGHPSSGAPPPSC (not fully specified)", "note": "[GIP derivative of SEQ ID NO: 22]", "In vitro activity (%) of GIP derivatives compared to human native GIP in human GIP receptors (EC50 from accumulated cAMP, CHO cells expressing the human GIP receptor)": 71.6},
      {"binder": "Y[Aib]EGTFISDYSIYLDKQAQKEFVNWLL[Aib]GGPSSGAPPPSC (not fully specified)", "note": "[GIP derivative of SEQ ID NO: 23]", "In vitro activity (%) of GIP derivatives compared to human native GIP in human GIP receptors (EC50 from accumulated cAMP, CHO cells expressing the human GIP receptor)": 87.6},
      {"binder": "Y[Aib]EGTFISDYSI[Aib]LDKQAA[Aib]EFVNWLL[Aib]GHPSSGAPPPSC (not fully specified)", "note": "[GIP derivative of SEQ ID NO: 24]", "In vitro activity (%) of GIP derivatives compared to human native GIP in human GIP receptors (EC50 from accumulated cAMP, CHO cells expressing the human GIP receptor)": 183},
      {"binder": "Y[Aib]EGTFISDYSIYLDKQAA[Aib]EFVQWLI[Aib]GGPSSGAPPPSC (not fully specified)", "note": "[GIP derivative of SEQ ID NO: 25]", "In vitro activity (%) of GIP derivatives compared to human native GIP in human GIP receptors (EC50 from accumulated cAMP, CHO cells expressing the human GIP receptor)": 78.3},
      {"binder": "Y[Aib]EGTFISDYSIYLDKQAA[Aib]EFVQWLIAGHPSSGAPPPC (not fully specified)", "note": "[GIP derivative of SEQ ID NO: 26]", "In vitro activity (%) of GIP derivatives compared to human native GIP in human GIP receptors (EC50 from accumulated cAMP, CHO cells expressing the human GIP receptor)": 66.7},
      {"binder": "Y[Aib]EGTFISDYSI[Aib]MDAIAQQDFVNWLLAGGPSSGAPPPSC (not fully specified)", "note": "[GIP derivative of SEQ ID NO: 3]", "In vitro activity (%) of GIP derivatives compared to human native GIP in human GIP receptors (EC50 from accumulated cAMP, CHO cells expressing the human GIP receptor)": 15.6},
      {"binder": "Y[Aib]EGTFISDYSIYMDAIAQQDFVNWLLAGGPSSGAPPPSC (not fully specified)", "note": "[GIP derivative of SEQ ID NO: 4]", "In vitro activity (%) of GIP derivatives compared to human native GIP in human GIP receptors (EC50 from accumulated cAMP, CHO cells expressing the human GIP receptor)": 10.5},
      {"binder": "Y[Aib]EGTFISDYSIQMDAIAQQDFVNWLLAGGPSSGAPPPSC (not fully specified)", "note": "[GIP derivative of SEQ ID NO: 5]", "In vitro activity (%) of GIP derivatives compared to human native GIP in human GIP receptors (EC50 from accumulated cAMP, CHO cells expressing the human GIP receptor)": 12.1},
      {"binder": "Y[Aib]EGTFISDYSIYLDAIAQQDFVNWLLAGGPSSGAPPPSC (not fully specified)", "note": "[GIP derivative of SEQ ID NO: 6]", "In vitro activity (%) of GIP derivatives compared to human native GIP in human GIP receptors (EC50 from accumulated cAMP, CHO cells expressing the human GIP receptor)": 17.4},
      {"binder": "Y[Aib]EGTFISDYSIYLDAQAQQDFVNWLLAGGPSSGAPPPSC (not fully specified)", "note": "[GIP derivative of SEQ ID NO: 7]", "In vitro activity (%) of GIP derivatives compared to human native GIP in human GIP receptors (EC50 from accumulated cAMP, CHO cells expressing the human GIP receptor)": 19.6},
      {"binder": "Y[Aib]EGTFISDYSIYLDAQAA[Aib]DFVNWLLAGGPSSGAPPPSC (not fully specified)", "note": "[GIP derivative of SEQ ID NO: 8]", "In vitro activity (%) of GIP derivatives compared to human native GIP in human GIP receptors (EC50 from accumulated cAMP, CHO cells expressing the human GIP receptor)": 1.9},
      {"binder": "Y[Aib]EGTFISDYSIYLDAQAAKDFVNWLLAGGPSSGAPPPSC (not fully specified)", "note": "[GIP derivative of SEQ ID NO: 9]", "In vitro activity (%) of GIP derivatives compared to human native GIP in human GIP receptors (EC50 from accumulated cAMP, CHO cells expressing the human GIP receptor)": 2}
    ]}
  ]
}
